Patent US20170362276A1 (published 2017)
Positions of bridges follow the written chain, without caps; N, C: chain ends. Non-standard residues stand in square brackets, D forms with d. No end group written: not given here.

Assays:
[1] = target: human kappa opioid receptor (human) (UniProt P41145); assay: cell-based or functional assay
[2] = target: human mu opioid receptor (human) (UniProt P35372); assay: cell-based or functional assay
[3] = target: T1, human delta opioid receptor (human, UniProt P41143 1-372); assay: cell-based or functional assay
[4] = target: T1, human delta opioid receptor; assay: ratio of Ki at delta to Ki at mu, radioligand competition
[5] = target: human kappa opioid receptor (human) (UniProt P41145); assay: ratio of Ki at kappa to Ki at mu, radioligand competition
[6] = target: human mu opioid receptor (human) (UniProt P35372); assay: radioligand competition, 3H-DAMGO, membranes of CHO cells expressing cloned human mu receptor
[7] = target: T1, human delta opioid receptor; assay: radioligand competition, 3H-DPDPE, membranes of CHO cells expressing cloned human delta receptor
[8] = target: human kappa opioid receptor (human) (UniProt P41145); assay: radioligand competition, 3H-U69593, membranes of CHO cells expressing cloned human kappa receptor

Molecule | Agonist EC50 (35S-GTPγS assay) [1] [nM] | Selectivity kappa/mu (agonist EC50) [1] | Agonist EC50 (35S-GTPγS assay) [2] [nM] | efficacy of mu activation (35S-GTPγS) [2] [%] | Agonist EC50 (35S-GTPγS assay) [3] [nM] | Selectivity delta/mu (agonist EC50) [3] | Selectivity Delta/Mu [4] | Selectivity Kappa/Mu [5] | Ki [6] [nM] | Ki [7] [nM] | Ki [8] [nM] | Delta Antagonist IC 50 [3] [nM]
ck2, Tyr-c[D-Lys-Phe-Phe] (peptide) | 206 | 1370 | 0.15 | > 90 | 7 | 44 | 9 | 33 | 0.36 | 3 | 12 | –
ck1, Tyr-c[D-Lys-Trp-Phe] (peptide) | 470 | 2240 | 0.21 | > 90 | 138 | 658 | 90 | 111 | 0.32 | 28 | 35 | –
YPFF-NH2 [endomorphin-2 (Tyr-Pro-Phe-Phe-NH2)] | – | – | – | – | – | – | – | – | – | – | – | 30000
Y[dK]WFE-NH2 (lactam 2-5; N-terminus assumed; SMILES NC(=O)[C@@H]1CCC(=O)NCCCC[C@@H](NC(=O)[C@@H](N)Cc2ccc(O)cc2)C(=O)N[C@@H](Cc2c[nH]c3ccccc23)C(=O)N[C@@H](Cc2ccccc2)C(=O)N1) [Compound 1, Tyr-c[D-Lys-Trp-Phe-Glu]-NH2] | – | – | – | – | – | – | – | – | – | – | – | 105
Y[dK]WFD-NH2 (lactam 2-5; N-terminus assumed; SMILES NC(=O)[C@@H]1CC(=O)NCCCC[C@@H](NC(=O)[C@@H](N)Cc2ccc(O)cc2)C(=O)N[C@@H](Cc2c[nH]c3ccccc23)C(=O)N[C@@H](Cc2ccccc2)C(=O)N1) [Compound 5, Tyr-c[D-Lys-Trp-Phe-Asp]-NH2] | – | – | – | – | – | – | – | – | – | – | – | 557
Y[dE]FFK-NH2 (lactam 2-5; N-terminus assumed; SMILES NC(=O)[C@@H]1CCCCNC(=O)CC[C@@H](NC(=O)[C@@H](N)Cc2ccc(O)cc2)C(=O)N[C@@H](Cc2ccccc2)C(=O)N[C@@H](Cc2ccccc2)C(=O)N1) [Compound 2, Tyr-c[D-Glu-Phe-Phe-Lys]-NH2] | – | – | – | – | – | – | – | – | – | – | – | 2750
